Measurements published in paper PMC8476742, “Mapping Potential Determinants of Peroxidative Activity in an Evolved Fungal Peroxygenase from Agrocybe aegerita” (Frontiers in Bioengineering and Biotechnology, 2021).
Positions count from the first letter of the chain named. Numbers in names are those of the source.

B1: PaDa-I (Cyclocybe aegerita; A359H/A360H/F354L/G361I/I291V/L110F/V100A/V118I) (protein)
chain: EPGLPPGPLENSSAKLVNDEAHPWKPLRPGDIRGPCPGLNTLASHGYLPRNGVATPAQIINAVQEGFNFDNQAAIFATYAAHLVDGNLITDLLSIGRKTRLTGPDPPPPASVGGLNEHGTFEGDASMTRGDAFFGNNHDFNETLFEQLVDYSNRFGGGKYNLTVAGELRFKRIQDSIATNPNFSFVDFRFFTAYGETTFPANLFVDGRRDDGQLDMDAARSFFQFSRMPDDFFRAPSPRSGTGVEVVVQAHPMQPGRNVGKINSYTVDPTSSDFSTPCLMYEKFVNITVKSLYPNPTVQLRKALNTNLDFLFQGVHHICTQVFPYGRD
notes: evolved secretion variant, mature secreted enzyme; signal peptide mutations F12Y, A14V, R15G, A21D; expressed in Saccharomyces cerevisiae BJ5464, purified by ion exchange, no tag mentioned; heme-thiolate
B2: PaDa-I (Cyclocybe aegerita; A359S/A360N/F354L/G361L/I291V/L110F/V100A/V118I/V358L) (protein)
chain: B1 chain with V315L, H316S, H317N, I318L
notes: as for B1

Experiments:
Assay in all cases: purified protein
Format in all cases: biochemical, Cyclocybe aegerita
purified protein [1] = substrate: O=[N+]([O-])c1ccc2c(c1)OCO2; conditions: 1 mM H2O2, 100 mM potassium phosphate pH 7.0, 15% acetonitrile
purified protein [2] = substrate: CCn1c(=NN=c2sc3cc(S(=O)(=O)O)ccc3n2CC)sc2cc(S(=O)(=O)O)ccc21
purified protein [3] = substrate: COc1ccc(CO)cc1OC; conditions: 2 mM H2O2, 100 mM potassium phosphate pH 7.0, clone 23
[4] = 2 mM H2O2, 100 mM sodium phosphate-citrate pH 3.0, clone 8
[5] = 2 mM H2O2, 100 mM sodium phosphate-citrate pH 3.0, clone 23

Protein | Km (purified protein [1]; clone 8) [µM] | kcat (purified protein [1]; clone 8) [s⁻¹] | kcat/Km (purified protein [1]; clone 8) [M⁻¹ s⁻¹] | Km (purified protein [2]; [4]) [µM] | kcat (purified protein [2]; [4]) [s⁻¹] | kcat/Km (purified protein [2]; [4]) [M⁻¹ s⁻¹] | Km (purified protein [1]; clone 23) [µM] | kcat (purified protein [1]; clone 23) [s⁻¹] | kcat/Km (purified protein [1]; clone 23) [M⁻¹ s⁻¹] | Km (purified protein [2]; [5]) [µM] | kcat (purified protein [2]; [5]) [s⁻¹] | kcat/Km (purified protein [2]; [5]) [M⁻¹ s⁻¹] | Km (purified protein [3]) [µM] | kcat (purified protein [3]) [s⁻¹] | kcat/Km (purified protein [3]) [M⁻¹ s⁻¹]
B1 | 437 ± 53 | 368 ± 19 | 842000 ± 111000 | 14 ± 2.4 | 239 ± 13 | 1.68e+07 ± 3.03e+06 |  |  |  |  |  |  |  |  | 
B2 |  |  |  |  |  |  | 376 ± 40 | 367 ± 16 | 976000 ± 112000 | 15 ± 2 | 250 ± 11 | 1.67e+07 ± 2.34e+06 | 4920 ± 450 | 151 ± 4 | 31000 ± 3000
